Assay results taken from article PMC10083716.
Residue numbers refer to the chain shown, from its start.

Legend:
[1] = target: T1, mouse 5-HT3A receptor W447A, R449A, L454A, full length (mouse) (UniProt P23979)
T1 sequence: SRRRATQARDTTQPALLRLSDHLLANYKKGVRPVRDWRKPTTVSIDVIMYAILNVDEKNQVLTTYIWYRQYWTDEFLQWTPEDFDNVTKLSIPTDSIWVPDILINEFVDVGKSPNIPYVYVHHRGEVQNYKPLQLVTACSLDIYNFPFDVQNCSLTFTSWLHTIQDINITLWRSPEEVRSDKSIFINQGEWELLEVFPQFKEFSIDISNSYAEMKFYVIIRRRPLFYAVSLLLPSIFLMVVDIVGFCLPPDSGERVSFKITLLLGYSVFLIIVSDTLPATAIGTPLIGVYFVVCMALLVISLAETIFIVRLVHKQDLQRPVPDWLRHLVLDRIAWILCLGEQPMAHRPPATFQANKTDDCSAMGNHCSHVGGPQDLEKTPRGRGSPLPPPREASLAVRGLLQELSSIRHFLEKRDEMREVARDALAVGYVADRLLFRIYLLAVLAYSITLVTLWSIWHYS

[2] = target: T2, mouse 5-HT3A receptor W347A, full length (mouse) (UniProt P23979)
T2 sequence: T1 sequence with W324A, A424W, A426R, A431L

[3] = target: T3, mouse 5-HT3A receptor, wild type, full length (mouse) (UniProt P23979)
T3 sequence: T1 sequence with A424W, A426R, A431L

[4] = target: T4, mouse 5-HT3A receptor W347A, R349A, L353A, full length (mouse) (UniProt P23979)
T4 sequence: T1 sequence with W324A, R326A, L330A, A424W, A426R, A431L

[5] = target: T5, mouse 5-HT3A receptor L353A, full length (mouse) (UniProt P23979)
T5 sequence: T1 sequence with L330A, A424W, A426R, A431L

[6] = target: T6, mouse 5-HT3A receptor R349A, full length (mouse) (UniProt P23979)
T6 sequence: T1 sequence with R326A, A424W, A426R, A431L

B1: resistance to inhibitors of choline esterase (RIC-3) protein (natural protein)
chain: SRGKRQEPPPTPEGKLGRFPPMMHHHQAPSDGQTPGARFQRSHLAEAFAKAKGSGGGAGGGGSGRGLMGQIIPIYGFGIFLYILYILFKLSKGKTTAEDGKCYTAMPGNTHRKITSFELAQLQEKLKETEAAMEKLINRVGPNGESRAQTVTSDQEKRLLHQLREITRVMKEGKFIDRFSPEKEAEEAPYMEDWEGYPEETYPIYDLSDCIKRRQETILVDYPDPKELSAEEIAERMGMIEEEESDHLGWESLPTDPRAQEDNSVTSCDPKPETCSCCFHEDEDPAVLAENAGFSADSYPEQEETTKEEWSQDFKDEGLGISTDKAYTGSMLRKRNPQGLE
With B1 the remaining current (%): peak 5-HT-evoked current of 5-HT3A channels co-expressed with RIC-3 divided by that of the channels alone; TEVC in Xenopus oocytes, 10 uM serotonin [1] was 36.9%, the remaining current (%): peak 5-HT-evoked current of 5-HT3A channels co-expressed with RIC-3 divided by that of the channels alone; TEVC in Xenopus oocytes, 10 uM serotonin [2] was 43.4% and the remaining current (%): peak 5-HT-evoked current of 5-HT3A channels co-expressed with RIC-3 divided by that of the channels alone; TEVC in Xenopus oocytes, 10 uM serotonin [3] was 15.6%. The remaining current (%): peak 5-HT-evoked current of 5-HT3A channels co-expressed with RIC-3 divided by that of the channels alone; TEVC in Xenopus oocytes, 10 uM serotonin [4] was 40.6%, the remaining current (%): peak 5-HT-evoked current of 5-HT3A channels co-expressed with RIC-3 divided by that of the channels alone; TEVC in Xenopus oocytes, 10 uM serotonin [5] was 50% and the remaining current (%): peak 5-HT-evoked current of 5-HT3A channels co-expressed with RIC-3 divided by that of the channels alone; TEVC in Xenopus oocytes, 10 uM serotonin [6] was 33.9%.
